± gives the uncertainty stated by the source.
Assay: self-splicing fitness, log relative to wild type (ln ratio); higher = more splicing; Tetrahymena group I intron in knt gene, E. coli kanamycin selection, DiMSum; sequences stand for … in CUCUCU…GGAGGGAAAAGUUAUCAGGCAUGCACCUGGUAGCUAGUCUUUAAACCAAUAGAUUGCAUCGGUUUAAAAGGCAAGACCGUCAAAUUGCGGGAAAGGGGUCAACAGCCGUUCAGUACCAAGUCUCAGGGGAAACUUUGAGAUGGCCUUGCAAAGGGUAUGGUAAUAAGCUGACGGACAUGGUCCUAACCACGCAGCCAAGUCCUAAGUCAACAGAUCUUCUGUUGAUAUGGAUGCAGUUCACAGACUAAAUGUCGGUCGGGGAAGAUGUAUUCUUCUCAUAAGAUAUAGUCGGACCUCUCCUUAAUGGGAGCUAGCGGAUGAAGUGAUGCAACACUGGAGCCGCUGGGAACUAAUUUGUAUGCGAAAGUAUAUUGAUUAGUUUUGGAGUACUCGUGGUCG
Summary of the method: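 Colonies from six replicate transformations of E. coli BL21(DE3) were pooled and amplicon-sequenced on an Illumina HiSeq 2500. The library placed an intron with all eight P1ex-region nucleotides randomised inside the knt kanamycin-resistance gene on pET-22b(+), and cells grew overnight at 37°C or 30°C on LB agar with or without 25 μg/mL kanamycin (plus 100 μg/mL carbenicillin, 50 μM IPTG, 0.2% rhamnose). Fitness is the DiMSum error-weighted combination of wild-type-normalised replicate fold changes, kanamycin versus none.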

Sequence	self-splicing fitness (ln) (30 °C)	self-splicing fitness (ln) (37 °C)
CGCCAGCAAUAUUACGUAUU	-3.2 ± 0.093	-2.71 ± 0.15
CGCCAGCAAUAUUACGUCGC	-3.23 ± 0.16	-2.11 ± 0.2
CGCCAGCAAUAUUACGUGGU	-3.15 ± 0.18	-3.22 ± 0.26
CGCCAGCAAUAUUACGUGUC	-3.34 ± 0.15	-2.36 ± 0.14
CGCCAGCAAUAUUACGUUAC	-1.91 ± 0.22	-3.49 ± 0.31
CGCGAGCAAUAUUACGACUC	–	-1.14 ± 0.31
CGCGAGCAAUAUUACGAGGA	-3.16 ± 0.22	-2.16 ± 0.18
CGCGAGCAAUAUUACGCAAG	-2.92 ± 0.27	-2.91 ± 0.43
CGCGAGCAAUAUUACGCGAA	-3.88 ± 0.43	-2.65 ± 0.23
CGCGAGCAAUAUUACGGAAG	-1.78 ± 0.17	-2.32 ± 0.2
CGCGAGCAAUAUUACGGAGA	-2.25 ± 0.23	-2.3 ± 0.33
CGCGAGCAAUAUUACGGCAA	-4.21 ± 0.46	-1.97 ± 0.28
CGCGAGCAAUAUUACGUAAG	-1.78 ± 0.096	-1.73 ± 0.12
CGCGAGCAAUAUUACGUAAU	-3.36 ± 0.27	-3.23 ± 0.4
CGCGAGCAAUAUUACGUACA	–	-2.71 ± 0.43
CGCGAGCAAUAUUACGUACG	-2.6 ± 0.24	-1.5 ± 0.27
CGCGAGCAAUAUUACGUACU	-3.32 ± 0.28	-2.3 ± 0.31
CGCGAGCAAUAUUACGUAGG	-2.88 ± 0.14	-0.445 ± 0.12
CGCGAGCAAUAUUACGUCCG	-2.81 ± 0.37	1.32 ± 0.29
CGCGAGCAAUAUUACGUUAG	-3.74 ± 0.21	-1.33 ± 0.18
CGCGAGCAAUAUUACGUUGU	-3.93 ± 0.28	-2.4 ± 0.36
CGCUAGCAAUAUUACGAAAU	-3.5 ± 0.22	-2.01 ± 0.2

Sequence	self-splicing fitness (ln) (30 °C)	self-splicing fitness (ln) (37 °C)
CGCUAGCAAUAUUACGAACU	-0.352 ± 0.12	-0.0958 ± 0.14
CGCUAGCAAUAUUACGAAUG	-1.33 ± 0.17	-0.192 ± 0.16
CGCUAGCAAUAUUACGAGAA	–	-1.99 ± 0.29
CGCUAGCAAUAUUACGAGAG	-3.41 ± 0.24	-2.81 ± 0.38
CGCUAGCAAUAUUACGAGUC	-1.8 ± 0.13	-1.01 ± 0.15
CGCUAGCAAUAUUACGAUUC	-3.29 ± 0.36	-2.12 ± 0.21
CGCUAGCAAUAUUACGCAAC	–	-1.61 ± 0.49
CGCUAGCAAUAUUACGCAUU	-3.69 ± 0.28	-2.04 ± 0.27
CGCUAGCAAUAUUACGCGUA	-3.45 ± 0.37	-1.45 ± 0.15
CGCUAGCAAUAUUACGCGUG	-2.8 ± 0.13	-1.77 ± 0.12
CGCUAGCAAUAUUACGCUCU	-1.58 ± 0.1	-0.837 ± 0.099
CGCUAGCAAUAUUACGGCAC	-1.9 ± 0.18	0.16 ± 0.19
CGCUAGCAAUAUUACGGCAG	-1.29 ± 0.082	-0.703 ± 0.15
CGCUAGCAAUAUUACGGCGC	-1.1 ± 0.29	–
CGCUAGCAAUAUUACGGCUA	-1.91 ± 0.31	–
CGCUAGCAAUAUUACGGUCU	-1.02 ± 0.1	-0.659 ± 0.12
CGCUAGCAAUAUUACGUAUG	-1.27 ± 0.066	-0.236 ± 0.09
CGCUAGCAAUAUUACGUCAU	-3.97 ± 0.35	-1.25 ± 0.19
CGCUAGCAAUAUUACGUCCA	-1.49 ± 0.27	-1.04 ± 0.29
CGCUAGCAAUAUUACGUCCG	-0.673 ± 0.092	-0.4 ± 0.11
CGGAAGCAAUAUUACGAUAU	–	-2.82 ± 0.26
CGGAAGCAAUAUUACGAUGU	-2.72 ± 0.19	-0.735 ± 0.14

— the supplement of paper PMC7877785
